In paper PMC6216019:
Where two headings read alike, the source gives them in different places.

Legend:
AcrB-CFP (E. coli) [1] = target: AcrB-CFP (E. coli) (UniProt P31224); assay: FRET or BRET
AcrB-CFP (E. coli) [2] = target: AcrB-CFP (E. coli) (UniProt P31224); assay: FRET or BRET; remark: listed apart in the source
AcrB_(P223G) (E. coli) = AcrB_(P223G) (E. coli) (UniProt P31224); assay: native gel or EMSA
[3] = target: AcrB_(P223G)-CFP (E. coli) (UniProt P31224); assay: FRET or BRET
[4] = target: AcrB_(P223G)-CFP (E. coli) (UniProt P31224); assay: FRET or BRET; remark: listed apart in the source
[5] = target: AcrB_(P223G/V225C/A777C) (E. coli) (UniProt P31224); assay: cross-linking
[6] = target: AcrB_(V225C/A777C) (E. coli) (UniProt P31224); assay: cross-linking

Q: “AcrB-YPet (from UniProt P31224 1-1049) (natural protein)” was tested. Which FRET efficiency (AcrB-CFP (E. coli) [1]) did it give?
A: 35%

Q: What about the FRET efficiency (AcrB-CFP (E. coli) [2]) of the same substance?
A: 50%

Q: With “AcrB_(P223G) (from UniProt P31224 1-1049) (natural protein)” as the substance, how does the stoichiometry N (AcrB_(P223G) (E. coli)) read?
A: 3

Q: With “AcrB_(P223G)-YPet (from UniProt P31224 1-1049) (natural protein)” as the substance, how does the FRET efficiency [3] read?
A: 26%

Q: And the FRET efficiency [4]?
A: 22%

Q: With “AcrB_(P223G/V225C/A777C) (from UniProt P31224 1-1049) (natural protein)” as the substance, how does the stoichiometry N [5] read?
A: 3

Q: “AcrB_(V225C/A777C) (from UniProt P31224 1-1049) (natural protein)” was tested. Which stoichiometry N [6] did it give?
A: 3
